Measured values from PMC3873911 (PLoS ONE, 2013).
Residues, ends and D or L forms follow the SMILES beside them.

How the values were obtained:
Format in all cases: cell-based
NPSR receptor [1] = target: T1, NPSR receptor (Homo sapiens, UniProt Q6W5P4); assay: CRE-luciferase reporter assay in HEK293T cells over-expressing NPSR (cAMP signaling); conditions: for EC50 / Agonist effect (CRE) EC50: HEK293T co-transfected with CRE-luciferase reporter (50 ng), pSV-β-Gal (5 ng), NPSR plasmid (50 ng), after 36 h, 18 h with peptide in serum-free media, normalized to β-galactosidase, at least three experiments in triplicates, apparent EC50, Graphpad Prism 5.0; for EC50: read-out: Agonist effect (CRE) EC50; for bioactivity in the CRE-luciferase assay (in words): 6th position substitution mutants, HEK293T with NPSR, Fig. 3A
T1 construct: Full length cDNA for the NPSR receptor was purchased from OriGene Technologies; host or cells: HEK293T
T1 sequence (Q6W5P4 1-371): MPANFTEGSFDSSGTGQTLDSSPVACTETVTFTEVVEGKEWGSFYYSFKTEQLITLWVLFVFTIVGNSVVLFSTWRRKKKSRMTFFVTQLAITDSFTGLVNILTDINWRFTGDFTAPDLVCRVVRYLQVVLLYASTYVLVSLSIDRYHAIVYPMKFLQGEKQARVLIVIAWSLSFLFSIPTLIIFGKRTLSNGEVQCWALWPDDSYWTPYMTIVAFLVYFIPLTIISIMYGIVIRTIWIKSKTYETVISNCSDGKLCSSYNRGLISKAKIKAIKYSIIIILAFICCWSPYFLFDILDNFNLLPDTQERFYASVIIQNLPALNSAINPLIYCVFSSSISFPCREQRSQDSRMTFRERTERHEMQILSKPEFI
Procedure: (§1) HEK293T cells seeded in 24-well plates were co-transfected with different luciferase reporters (50 ng), the pSV-β-Gal plasmid (5 ng), and the NPSR receptor plasmid (50 ng). After 36 h, cells were cultured in serum-free media for another 18 h with increasing doses of the various NPS peptides. Luciferase activities were determined using the luciferase assay kit (Promega) and normalized using β-galactosidase activities. All experiments were performed at least three times in triplicates. Data (EC50) were analyzed using Graphpad Prism 5.0.
(§2) Figure 2 Sequence comparison and lower NPSR receptor signaling ability of the L^6-NPS variant. (A) Alignment of NPS among diverse vertebrate species. Sequences were aligned by the ClustalW program. Stars indicate identical amino acids and double dots (:) indicate conserved amino acids. The predicted convertase cleavage sites (KR) were underlined and the 6th amino acid “V” or “L” in the mature peptide region are shown in bold. (B) Comparison of NPS and L^6-NPS signaling based on the CRE-luciferase assay. (C) Comparison of NPS and L^6-NPS signaling based on the NFAT luciferase assay. HEK293T cells seeded in 24-well plates were co-transfected with different luciferase reporters (50 ng), the pSV-β-Gal plasmid (5 ng), and the NPSR receptor plasmid (50 ng). After 36 h, cells were cultured in serum-free media for another 18 h with increasing doses of the various NPS peptides. EC50 values were analyzed using Graphpad Prism 5.0.
(§3) To compare the bioactivity of wide type NPS (NPS) and the SNP variant (L^6-NPS), we monitored their receptor-activation activities in vitro using HEK293T cells over-expressing NPSR. Because NPS activates NPSR by increasing cAMP production and intracellular Ca^2+ signaling, [10], we used CRE- and NFAT- response elements to measure cAMP and intracellular Ca2+ signaling respectively, [36]. As expected, treatment with wide-type NPS led to dose-dependent stimulation of both CRE- and NFAT- luciferase activities (Fig. 2B and C). We also performed the relaxin-LGR7 ligand-receptor pair as a positive control for the CRE-luciferase assay. Also, gastrin-CCKB ligand-receptor pair was used as a positive control for the SRE-luciferase assay. Cells transfected with the empty vector were also treated with NPS to serve as a negative control (Fig. S4).

NPSR receptor [2] = target: T1, NPSR receptor; assay: NFAT-luciferase reporter assay in HEK293T cells over-expressing NPSR (intracellular Ca2+ signaling); conditions: HEK293T co-transfected with NFAT-luciferase reporter (50 ng), pSV-β-Gal (5 ng), NPSR plasmid (50 ng), after 36 h, 18 h with peptide in serum-free media, normalized to β-galactosidase, at least three experiments in triplicates, Graphpad Prism 5.0; for EC50: read-out: Agonist effect (NFAT) EC50
Procedure: as §1, §2, §3

LGR7 = target: T2, LGR7 (Homo sapiens, UniProt Q9HBX9); assay: CRE-luciferase assay, relaxin-LGR7 ligand-receptor pair (positive control); conditions: Fig. S4
T2 construct: expressed in transfected cells; host or cells: HEK293T (inferred from the general luciferase protocol)
T2 sequence (Q9HBX9 1-757): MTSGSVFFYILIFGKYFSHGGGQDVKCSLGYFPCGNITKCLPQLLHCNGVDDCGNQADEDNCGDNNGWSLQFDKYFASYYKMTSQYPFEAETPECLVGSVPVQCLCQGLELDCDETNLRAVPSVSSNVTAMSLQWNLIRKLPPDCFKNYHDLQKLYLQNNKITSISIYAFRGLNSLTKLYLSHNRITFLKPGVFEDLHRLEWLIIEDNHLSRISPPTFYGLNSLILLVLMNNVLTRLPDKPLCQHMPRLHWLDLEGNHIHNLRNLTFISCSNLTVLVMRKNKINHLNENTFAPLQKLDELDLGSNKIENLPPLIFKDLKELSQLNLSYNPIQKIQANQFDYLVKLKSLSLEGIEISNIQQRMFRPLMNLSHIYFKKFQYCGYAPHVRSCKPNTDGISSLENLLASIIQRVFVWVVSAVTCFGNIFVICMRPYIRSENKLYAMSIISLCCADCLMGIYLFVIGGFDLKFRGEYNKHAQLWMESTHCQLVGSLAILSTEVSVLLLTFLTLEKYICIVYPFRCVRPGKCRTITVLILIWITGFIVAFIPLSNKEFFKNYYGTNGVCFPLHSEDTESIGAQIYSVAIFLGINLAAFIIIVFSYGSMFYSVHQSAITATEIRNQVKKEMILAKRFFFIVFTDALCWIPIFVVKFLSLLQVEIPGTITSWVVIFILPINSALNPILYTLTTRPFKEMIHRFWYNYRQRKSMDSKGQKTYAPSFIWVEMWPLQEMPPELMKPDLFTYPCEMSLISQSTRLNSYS
Description: as §3
Supplementary file pone.0083009.s004.pdf: Figure S4 Positive control and negative control for the CRE- and SRE- luciferase assay. […] (PDF) Click here for additional data file.

| Compound | EC50 (NPSR receptor [1]) | EC50 (NPSR receptor [2]) | bioactivity in the CRE-luciferase assay (in words) (NPSR receptor [1]) | Agonist effect (CRE) EC50 (NPSR receptor [1]) | Agonist effect (NFAT) EC50 (NPSR receptor [2]) | stimulation of CRE-luciferase via LGR7 (LGR7) |
| --- | --- | --- | --- | --- | --- | --- |
| CSCC[C@H](NC(=O)CNC(=O)[C@@H](NC(=O)CNC(=O)[C@H](CC(C)C)NC(=O)CNC(=O)[C@H](CC(N)=O)NC(=O)[C@H](CCCNC(=N)N)NC(=O)[C@H](Cc1ccccc1)NC(=O)[C@@H](N)CO)[C@@H](C)O)C(=O)N[C@@H](CCCCN)C(=O)N[C@@H](CCCCN)C(=O)N[C@H](C(=O)N[C@@H](CO)C(=O)N[C@@H](Cc1ccccc1)C(=O)N[C@@H](CCC(N)=O)C(=O)N[C@@H](CCCNC(=N)N)C(=O)N[C@@H](C)C(=O)N[C@@H](CCCCN)C(=O)N[C@@H](CO)C(=O)O)[C@@H](C)O [L^6-NPS] (H-SFRNGLGTGMKKTSFQRAKS-OH) | 586 nM | 975 nM |  |  |  |  |
| D^6-NPS: NPS mutant with aspartic acid at the 6th position (SFRNGDGTGMKKTSFQRAKS; Neuropeptide S; UniProt P0C0P6 70-89, looked up, variant V6D) |  |  | complete loss of bioactivity | inactive | inactive |  |
| F^6-NPS: NPS mutant with phenylalanine at the 6th position (SFRNGFGTGMKKTSFQRAKS; Neuropeptide S; UniProt P0C0P6 70-89, looked up, variant V6F) |  |  | complete loss of bioactivity | inactive | inactive |  |
| CC[C@H](C)[C@H](NC(=O)CNC(=O)[C@H](CC(N)=O)NC(=O)[C@H](CCCNC(=N)N)NC(=O)[C@H](Cc1ccccc1)NC(=O)[C@@H](N)CO)C(=O)NCC(=O)N[C@H](C(=O)NCC(=O)N[C@@H](CCSC)C(=O)N[C@@H](CCCCN)C(=O)N[C@@H](CCCCN)C(=O)N[C@H](C(=O)N[C@@H](CO)C(=O)N[C@@H](Cc1ccccc1)C(=O)N[C@@H](CCC(N)=O)C(=O)N[C@@H](CCCNC(=N)N)C(=O)N[C@@H](C)C(=O)N[C@@H](CCCCN)C(=O)N[C@@H](CO)C(=O)O)[C@@H](C)O)[C@@H](C)O [I^6-NPS] (H-SFRNGIGTGMKKTSFQRAKS-OH) | 174 nM | 280 nM |  |  |  |  |

The remaining lines, values ahead:

| EC50 (NPSR receptor [1]) | EC50 (NPSR receptor [2]) | bioactivity in the CRE-luciferase assay (in words) (NPSR receptor [1]) | Agonist effect (CRE) EC50 (NPSR receptor [1]) | Agonist effect (NFAT) EC50 (NPSR receptor [2]) | stimulation of CRE-luciferase via LGR7 (LGR7) | Compound |
| --- | --- | --- | --- | --- | --- | --- |
| 534 nM | 958 nM |  |  |  |  | CSCC[C@H](NC(=O)CNC(=O)[C@@H](NC(=O)CNC(=O)[C@H](C)NC(=O)CNC(=O)[C@H](CC(N)=O)NC(=O)[C@H](CCCNC(=N)N)NC(=O)[C@H](Cc1ccccc1)NC(=O)[C@@H](N)CO)[C@@H](C)O)C(=O)N[C@@H](CCCCN)C(=O)N[C@@H](CCCCN)C(=O)N[C@H](C(=O)N[C@@H](CO)C(=O)N[C@@H](Cc1ccccc1)C(=O)N[C@@H](CCC(N)=O)C(=O)N[C@@H](CCCNC(=N)N)C(=O)N[C@@H](C)C(=O)N[C@@H](CCCCN)C(=O)N[C@@H](CO)C(=O)O)[C@@H](C)O [A^6-NPS] (H-SFRNGAGTGMKKTSFQRAKS-OH) |
|  |  | complete loss of bioactivity | inactive | inactive |  | K^6-NPS: NPS mutant with lysine at the 6th position (SFRNGKGTGMKKTSFQRAKS; Neuropeptide S; UniProt P0C0P6 70-89, looked up, variant V6K) |
| 36.9 nM | 44.6 nM |  |  |  |  | CSCC[C@H](NC(=O)CNC(=O)[C@@H](NC(=O)CNC(=O)[C@@H](NC(=O)CNC(=O)[C@H](CC(N)=O)NC(=O)[C@H](CCCNC(=N)N)NC(=O)[C@H](Cc1ccccc1)NC(=O)[C@@H](N)CO)C(C)C)[C@@H](C)O)C(=O)N[C@@H](CCCCN)C(=O)N[C@@H](CCCCN)C(=O)N[C@H](C(=O)N[C@@H](CO)C(=O)N[C@@H](Cc1ccccc1)C(=O)N[C@@H](CCC(N)=O)C(=O)N[C@@H](CCCNC(=N)N)C(=O)N[C@@H](C)C(=O)N[C@@H](CCCCN)C(=O)N[C@@H](CO)C(=O)O)[C@@H](C)O [NPS, Neuropeptide S, reference compound] (H-SFRNGVGTGMKKTSFQRAKS-OH) |
|  |  |  |  |  | normal stimulation | relaxin |
|  |  | complete loss of bioactivity | inactive | inactive |  | N^6-NPS: NPS mutant with asparagine at the 6th position (SFRNGNGTGMKKTSFQRAKS; Neuropeptide S; UniProt P0C0P6 70-89, looked up, variant V6N) |
